Measurements reported in US6866854.

Biological target: p53 (UniProt P04637)
Experiment: cell-based or functional assay

p53, sequence (P04637 whole entry): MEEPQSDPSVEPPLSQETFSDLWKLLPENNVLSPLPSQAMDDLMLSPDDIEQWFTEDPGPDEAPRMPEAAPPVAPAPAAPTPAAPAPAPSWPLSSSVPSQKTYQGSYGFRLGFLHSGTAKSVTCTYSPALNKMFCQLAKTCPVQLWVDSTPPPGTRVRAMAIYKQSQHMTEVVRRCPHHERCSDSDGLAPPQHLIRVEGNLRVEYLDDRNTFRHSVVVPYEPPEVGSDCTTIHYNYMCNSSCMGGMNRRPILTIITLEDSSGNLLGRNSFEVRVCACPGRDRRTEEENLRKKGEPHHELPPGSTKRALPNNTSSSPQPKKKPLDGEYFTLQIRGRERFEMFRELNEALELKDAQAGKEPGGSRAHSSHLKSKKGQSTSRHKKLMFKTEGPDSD

Kaposi's sarcoma-associated herpesvirus latency-associated nuclear antigen 2 (LANA2) (from UniProt F5HIC6 1-566)
inhibition of doxorubicin-induced (endogenous p53) activation of the pG13-Luc reporter in U2OS cells: 57%
inhibition of p53 activation of the pG13-Luc reporter in SAOS-2 cells: 87%
subdiploid (apoptotic) fraction of SAOS-2 cells expressing p53 with LANA2, propidium iodide flow cytometry: 10.8%
